Experimental findings from patent US11827701B2, “IL-6 binding molecules” (argenx BV, priority 2012, dated 2023) are described below.

The target of data set [1] is T1, bacterially produced human IL-6 (Homo sapiens, UniProt P05231).
T1 construct: His
Kind of data set: Surface plasmon resonance (Biacore), bacterially produced human IL-6 coated on CM5 chip. The format is binding. The following applies: periplasmic fractions.

Data set [2] deals with T2, cynomolgus monkey IL-6 (Macaca fascicularis, UniProt P79341).
T2 construct: His
T2 sequence (P79341 28-212): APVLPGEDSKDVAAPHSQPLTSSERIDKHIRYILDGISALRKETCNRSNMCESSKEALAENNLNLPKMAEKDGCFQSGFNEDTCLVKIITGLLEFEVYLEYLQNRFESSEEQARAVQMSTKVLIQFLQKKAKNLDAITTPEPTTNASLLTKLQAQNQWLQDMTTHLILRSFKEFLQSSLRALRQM
Kind of data set: Surface plasmon resonance (Biacore), cynomolgus monkey IL-6. The format is binding. The following applies: cy/cyno; periplasmic fractions, 29B11 chain shuffled.

The target of data set [3] is T3, eukaryotically produced human IL-6 (Homo sapiens, UniProt P05231).
T3 construct: purchased Humanzyme HZ-1044; host or cells: Human Embryonic kidney cells
T3 sequence (P05231 30-212): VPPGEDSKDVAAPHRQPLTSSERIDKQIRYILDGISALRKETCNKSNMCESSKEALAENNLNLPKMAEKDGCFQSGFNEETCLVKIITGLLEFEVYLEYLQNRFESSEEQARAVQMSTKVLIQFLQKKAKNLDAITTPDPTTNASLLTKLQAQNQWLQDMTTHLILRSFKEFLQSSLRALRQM
The data set is described as follows: Surface plasmon resonance (Biacore), eukaryotically produced human IL-6 coated on CM5 chip. Conditions: periplasmic fractions. The format is binding.

Data set [4] addresses T2, cynomolgus monkey IL-6. Kind of data set: Surface plasmon resonance (Biacore), cynomolgus monkey IL-6. In kind it is binding. Conditions: periplasmic fractions, 24D10 chain-shuffled Fabs. In general terms: SPR reads the build-up and loss of mass on a sensor chip optically.
Data set [5] in a line: Pharmacokinetic study, single intravenous dose. In kind it is in vivo, cynomolgus monkey. As to the method: Pharmacokinetic analysis of antibody clone 129D3 formatted as various IgG1 molecules was performed. The following antibodies were analysed: Wild-type IgG1 129D3 (129D3-WT), IgG1 129D3 with the mutations M252Y/S254T/T256E in the Fc region (129D3-YTE), and IgG1 129D3 with the mutations H433K and N434F in the Fc region (129D3-HN).
Cynomolgus monkeys (3 per antibody tested) were injected intravenously with a single 5 mg/kg dose of 129D3-WT, 129D3-YTE, or 129D3-HN. Samples were taken at different time points and tested for plasma concentration of mAb by the ELISA. Specifically, a microtiterplate (Maxisorb Nunc) was coated with 1 ug/ml IL-6 (Immunotools) in PBS overnight at 4C. The plate was washed 2 times with PBS-Tween and blocked for 2 hours with 300 μl PBS-1% casein. After 2 washes with PBS-Tween, the samples were applied. All dilutions were made in 1% pooled blank plasma (this is a pool from 3 naive cynomolgus monkeys, see chapter 4.2). The samples were allowed to bind for 2 hours at RT. Plates were then washed 5 times with PBS-Tween and goat biotinilated anti-human IgG heavy and light chain monkey adsorbed polyclonal antibodies were applied at a 1000-fold dilution (Bethyl, catno: A80-319B) and allowed to bind for 1 hour at RT. After washing the plates 5 times with PBS-Tween, streptavidin conjugated with HRP (Jackson Immunoresearch 016-030-084) was applied at a 300,000-fold dilution and allowed to bind for 1 hour at RT. Plates were then washed 5 times with PBS-Tween and a 1:1 mixture of TMB (calbiochem CL07)-s(HS)TMB weakener (SDT, #sTMB-W) was added. The staining was allowed to proceed for 10 minutes and then stopped with 0.5 M […], after which the Optical Density was measured at 450 nm. The samples were analysed four times and 129D3-WT (from the same batch that was injected into the animals) was used for a standard curve.
The pharmacokinetic profiles for the different 129D3 IgG1 antibodies are shown graphically in FIG. 12 (the results are shown are the average result of the group of monkeys).

Another data set concerns IGROV-1 epithelial cells. Kind of data set: Epithelial ovarian cancer mouse xenograft (survival). Conditions: 4 or 20 mg/kg biweekly, nude mice. The format is in vivo. As to the method:
The in vivo potency of clone 129D3 was determined using a mouse xenogaft model. IGROV-1 epithelial cells (5×10^6) were injected subcutaneously into nude mice. After three days, mice were administered 129D3 or CNTO328 biweekly, at a dosage of 4 or 20 mg/kg. There were 5 mice per group and 10 mice in the control group. Percentage survival of mice in each study group was determined each week and the results plotted as a survival curve.

Data set [6] is described as follows: Thermal stability (melting temperature), functional antibody measured in Biacore. The format is physicochemical. As to the method:
To examine the thermal stability of the germlined and the parental versions of 68F2 in full length human IgG1 format, antibody samples were incubated at a concentration of 100 μg/ml (in PBS) at 4, 50, 55, 60, 65, 70 and 75° C. for 1 hour. Following this, the samples were cooled down slowly during a period of 15 minutes to 25° C. and kept at this temperature for 2 hours, after which they were stored overnight at 4° C. Following centrifugation to remove precipitates (of denatured antibody), the concentration of functional antibody remaining in solution was measured using Biacore (1/10 dilution in PBS and 1/10 in HBSEP). The slope of the association curve obtained after injection on the IL-6 immobilized chip is a measure of the concentration of functional antibody.

A further data set concerns RXF393 cells. Kind of data set: Renal cell cancer mouse xenograft model. The following applies: 3 mg/kg. In kind it is in vivo. As to the method: The in vivo efficacy of clones 68F2 was investigated in a renal cell cancer mouse xenograft model. […] Briefly, RXF393 cells (2×10^6) were injected subcutaneously at both lateral sides of a nude mouse. Tumors were allowed to grow to a volume between of 50 en 300 mm^3, prior to antibody administration. 90% of the injected mice developed a tumor. 40 mice were split into 5 groups of 8 mice. Each group was received intraperatoneal injection of either PBS (control) or a specific dose of clone 68F2 (1, 3, 10, or 30 mg/kg). Tumor size and survival was monitored twice per week.

A short description of data set [7]: Production level of IgG1 after transient expression in HEK293E cells. The following applies: IgG1, protein A purified. As to the method: The VH and VL of the germlined versions of 68F2 were recloned in pUPE Heavy Chain and Light Chain expression vectors, respectively, for transient expression of full-length IgG1 antibodies. After transient expression in HEK293E cells, IgG1 antibodies were purified with protein A and quantified by measurement of OD280. Table 19 below summarizes the production levels of the germlined derivatives together with the levels of the 68F2 parental antibody. Potencies (in pM) were also measured in a 7TD1 based proliferation assay for each antibody.

Where [8] appears, read: single intravenous administration, cynomolgus monkey, non-compartmental.

Values joined by “and” are separate entries in the source; they are usually repeats but may differ in a detail not shown here. Identical values can stand only once.

T1 sequence (P05231 30-212): as above

B1: 55H1c: 29B11 chain shuffled Fab, periplasmic fraction (antibody, V domains shown)
VH: EVQLVESGGGLVQPGGSLRLSCAASGFTFSSYAMSWVRQAPGKGLEWVSRISSGGISTYYADSVKGRFTISRDNAKNTLYLQMNSLKPEDTAVYYCVRYAWGVQWAFDFWGQGTQVTVSS
VL: AQSVVTQPPSVSGSPGKTVTISCAGTSSDVGYGNYVSWYQQLPGMAPKLLIYDVSKRASGIADRFSGSKSGNTASLTISGLQSEDEADYVCASYRRGGTAVFGGGTHLTVLG
On to B1, for which, in data set [1] (bact, 29B11 chain shuffled), the KA stood at 1e+10 M⁻¹, the ka is 1.28e+06 M⁻¹ s⁻¹ and the kd stood at 0.000127 s⁻¹. Also, in data set [1] (24D10 chain-shuffled Fabs), the “Bact (off-rate)” value is 1.35E−04 and 1.40E−04 and 1.26E−04. For the same molecule, in the data set with cynomolgus monkey IL-6 [2], the KA stood at 1.89e+09 M⁻¹, the ka is 1.16e+06 M⁻¹ s⁻¹ and the kd was 0.000615 s⁻¹. Besides, in data set [3] (euk, 29B11 chain shuffled), the KA worked out at 1.02e+10 M⁻¹, the ka stood at 1.13e+06 M⁻¹ s⁻¹ and the kd is 0.000111 s⁻¹. Besides, the “RANKED euk (off-rate)” value in data set [3] (24D10 chain-shuffled Fabs) was 1.01E−04 and 1.06E−04 and 1.13E−04. Moreover, in data set [3] (average over the IL-6 forms), the Average binding is 773 RU and 770 RU and 873 RU. Also, in the data set with cynomolgus monkey IL-6 [4], the “cyno (off-rate)” value is 4.17E−04 and 4.30E−04 and 3.90E−04.

B2: 129D3: final germlined variant of 68F2; 129D3-WT is wild-type IgG1 129D3 (antibody, listed as Lama glama, V domains shown)
VH: EVQLQESGPGLVKPSQTLSLTCTVSGGSITSRYYAWSWIRQPPGKGLEWIGVIDYDGDTYYSPSLKSRVSISWDTSKNQFSLKLSSVTPADTAVYYCARDPDVVTGFHYDYWGQGTMVTVSS
VL: QSALTQPPSVSGTPGQSVTISCAGANNDIGTYAYVSWYQQLPGTAPKLMIYKVTTRASGIPDRFSGSKSGNTASLTISGLQAEDEADYYCASYRNFNNAVFGTGTKLTVL
modifications: IgG1 constant regions
notes: final germlined variant of 68F2; 129D3-WT is wild-type IgG1 129D3
Consider B2, for which the half-life result in [5] (5 mg/kg i.v.) is given as “about 15.6 days”. Further, in data set [5] (setting [8]), the “MRT (Mean Residence Time)” value is recorded as 22.4 days, the “T½ (elimination half-life)” value is 15.6 days and the “k (mean elimination rate constant)” value came out at 0.0468 day⁻¹. Moreover, the “in vivo potency (survival)” value in the data set on IGROV-1 epithelial cells was “superior to the benchmark CNTO328 IL-6 antibody”. The “Tm higher than the parental 68F2 antibody” value in [6] (human IgG1) stood at 3 °C. In addition, the Tm result in data set [6] (human IgG1, 100 μg/ml in PBS, 1 hour) was “around 70 °C”. Moreover, in the data set with RXF393 cells, the “survival relative to control” value is recorded as “effective at delaying death of mice relative to control” and the tumor outgrowth result is “effective at inhibiting tumor outgrowth”.

B3: 129F2: germlined variant of 68F2, IgG1 (antibody, listed as Lama glama, V domains shown)
VH: EVQLQESGPGLVKPSQTLSLTCTVSGGSITSRYYAWSWIRQPPGKGLEWIGVIDYDGDTYYSPSLKSRVTISWDTSKNQFSLKLSSVTAEDTAVYYCARDPDVVTGFHYDYWGQGTMVTVSS
VL: QSALTQPPSVSGTPGQTVTISCAGANNDIGTYAYVSWYQQLPGTAPKLMIYKVTTRASGIPDRFSGSKSGNTASLTISGLQSEDEADYYCASYRNFNNAVFGGGTKLTVL
modifications: IgG1 constant regions
notes: germlined variant of 68F2, IgG1
Regarding B3, the “production level / production yield” value in [7] is 9 µg/mL.
